Test results taken from US20040043468A1.

Target: eIF4E
Experiment: cell-based or functional assay

dominant negative form of the eIF4E binding protein 4E-BP1 (from UniProt Q13541 1-118)
Photinus luciferase activity from the monocistronic PM construct in B104 cells, as a percentage of the activity with a control expression plasmid: 45 % of control
Photinus luciferase activity from the β-globin 5′ UTR monocistronic construct in B104 cells, as a percentage of the activity with a control expression plasmid: 43 % of control
